Assay results reported in article PMC2192655 (The Journal of Cell Biology, 2000).

How the values were obtained:
[1] = molecular target: Sncp (Snc proteins, secretory vesicle SNARE) (yeast (endogenous in the yeast strains of Table 1)) (UniProt P31109); test: co-IP
Tlg2p = molecular target: T1, Tlg2p (yeast (endogenous in the yeast strains), UniProt Q08144 1-397); test: co-IP
T1 sequence: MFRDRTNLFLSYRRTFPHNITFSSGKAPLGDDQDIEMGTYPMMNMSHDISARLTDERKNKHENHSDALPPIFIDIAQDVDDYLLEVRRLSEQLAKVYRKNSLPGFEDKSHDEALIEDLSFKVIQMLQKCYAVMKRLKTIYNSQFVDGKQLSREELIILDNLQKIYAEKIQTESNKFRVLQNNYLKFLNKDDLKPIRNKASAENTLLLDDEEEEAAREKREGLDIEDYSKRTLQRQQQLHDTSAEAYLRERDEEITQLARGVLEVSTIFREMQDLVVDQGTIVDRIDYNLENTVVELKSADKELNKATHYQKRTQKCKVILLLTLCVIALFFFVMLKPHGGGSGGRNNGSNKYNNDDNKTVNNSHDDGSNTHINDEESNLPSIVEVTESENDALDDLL

Chain of Sncp (Snc proteins, secretory vesicle SNARE) (yeast (endogenous in the yeast strains of Table 1)) (P31109 whole entry): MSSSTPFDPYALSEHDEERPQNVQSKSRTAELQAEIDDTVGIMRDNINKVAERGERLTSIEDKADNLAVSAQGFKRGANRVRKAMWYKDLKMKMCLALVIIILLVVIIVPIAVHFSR

## Ssop (Sso proteins, plasma membrane SNARE) (from UniProt P32867 1-290) (natural protein)
[1]
  percent of total Ssop coprecipitating with Sncp: 0.7%

B1: HA-Snc2p (COOH-terminally triple-HA-tagged Sncp) (natural protein)
chain: MSSSVPYDPYVPPEESNSGANPNSQNKTAALRQEIDDTVGIMRDNINKVAERGERLTSIEDKADNLAISAQGFKRGANRVRKQMWWKDLKMRMCLFLVVIILLVVIIVPIVVHFS
Tlg2p
  fold less bound to Tlg2p than to Ssop: 10 fold
